This test concerns the target T1, SLA-2*HB01 heavy chain (swine leukocyte antigen 2, haplotype HB01 allele), extracellular domain (Sus scrofa).
T1 construct: SLA-2 haplotype HB01 allele, swine MHC class I heavy chain, extracellular domain stated as 275 amino acids; also called heavy chain of SLA-2*HB01
T1 MHC heavy: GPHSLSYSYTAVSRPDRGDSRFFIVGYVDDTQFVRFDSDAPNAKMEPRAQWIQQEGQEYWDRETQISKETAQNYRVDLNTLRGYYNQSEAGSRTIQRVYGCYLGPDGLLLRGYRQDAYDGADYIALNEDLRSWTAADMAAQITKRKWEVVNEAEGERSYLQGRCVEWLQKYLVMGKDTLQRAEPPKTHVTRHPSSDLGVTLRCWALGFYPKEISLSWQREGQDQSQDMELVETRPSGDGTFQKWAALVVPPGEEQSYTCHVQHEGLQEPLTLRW
Kind of test: SEC. As to conditions: both partners purified.

The results in this text go back to publication PMC6299498 (BMC Veterinary Research, 2018).

Regarding ALLRSATYY, the binding result is listed as “binds”.
